Changes are numbered by the printed parent chain.
What was measured:
[1] = biological target: T1, KAE1;BUD32 S163R;CGI121;PCC1 (Arabidopsis thaliana;Arabidopsis …, UniProt O49653;Q94K14;Q6NMZ4;Q8GWD7 1-353;1-226;1-172;1-96, |S163R||); experiment: MST; MST: 20 mM PBS pH 7.5, 300 mM NaCl, 0.05% Tween 20, 25 C, 50 nM RNA; EMSA: 20 mM Tris-HCl pH 7.5, 300 mM NaCl, 5 mM b-mercaptoethanol, 20% glycerol, agarose gel in Tris-glycine pH 8.0 (8.5 for FAM-RNA), 4 C; details: protein: recombinant;recombinant;recombinant;recombinant; tags: none (6His on partner PCC1);;6His (C-term);6His (C-term); chain copies: 2;2;2;2; label: 5' 6-FAM; tRNA cloverleaf
T1 sequence 1: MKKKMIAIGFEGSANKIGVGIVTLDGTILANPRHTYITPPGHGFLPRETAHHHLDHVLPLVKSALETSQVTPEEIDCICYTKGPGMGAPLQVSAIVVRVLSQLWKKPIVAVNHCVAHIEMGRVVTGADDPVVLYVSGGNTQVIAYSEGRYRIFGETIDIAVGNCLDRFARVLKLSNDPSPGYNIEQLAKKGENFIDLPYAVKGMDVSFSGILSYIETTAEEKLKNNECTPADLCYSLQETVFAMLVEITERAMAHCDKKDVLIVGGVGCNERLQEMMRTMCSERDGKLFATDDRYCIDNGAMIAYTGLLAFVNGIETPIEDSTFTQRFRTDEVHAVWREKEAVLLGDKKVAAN
T1 sequence 2: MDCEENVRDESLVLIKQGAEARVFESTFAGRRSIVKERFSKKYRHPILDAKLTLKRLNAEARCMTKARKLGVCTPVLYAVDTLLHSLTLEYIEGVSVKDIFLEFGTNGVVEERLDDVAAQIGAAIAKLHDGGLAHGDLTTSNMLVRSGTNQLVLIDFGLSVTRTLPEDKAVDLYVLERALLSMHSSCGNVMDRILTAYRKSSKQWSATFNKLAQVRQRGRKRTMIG
T1 sequence 3: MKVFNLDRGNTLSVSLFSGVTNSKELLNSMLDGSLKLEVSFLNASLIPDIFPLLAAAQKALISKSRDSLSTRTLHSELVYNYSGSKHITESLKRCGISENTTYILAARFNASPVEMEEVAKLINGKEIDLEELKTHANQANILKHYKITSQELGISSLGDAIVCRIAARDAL
T1 sequence 4: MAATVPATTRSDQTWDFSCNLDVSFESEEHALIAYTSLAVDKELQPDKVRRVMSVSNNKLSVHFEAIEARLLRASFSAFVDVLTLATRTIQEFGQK

[2] = biological target: T2, KAE1;BUD32 K51E;CGI121;PCC1 (Arabidopsis thaliana;Arabidopsis …, UniProt O49653;Q94K14;Q6NMZ4;Q8GWD7 1-353;1-226;1-172;1-96, |K51E||); experiment: as above; details: protein: recombinant;recombinant;recombinant;recombinant; tags: none (6His on partner PCC1);;6His (C-term);6His (C-term); chain copies: 2;2;2;2; label: 5' 6-FAM; tRNA cloverleaf
T2 sequence 1: T1 sequence 1
T2 sequence 2: T1 sequence 2 with K51E, R163S
T2 sequence 3: T1 sequence 3
T2 sequence 4: T1 sequence 4

[3] = biological target: T3, KAE1 mutant-2;BUD32;CGI121;PCC1 (Arabidopsis thaliana;Arabidopsis …, UniProt O49653;Q94K14;Q6NMZ4;Q8GWD7 1-353;1-226;1-172;1-96, G43E;F44R;L45K;P46R;R47D;E48K|||); experiment: EMSA; conflicts with MST; MST: 20 mM PBS pH 7.5, 300 mM NaCl, 0.05% Tween 20, 25 C, 50 nM RNA; EMSA: 20 mM Tris-HCl pH 7.5, 300 mM NaCl, 5 mM b-mercaptoethanol, 20% glycerol, agarose gel in Tris-glycine pH 8.0 (8.5 for FAM-RNA), 4 C; details: protein: recombinant;recombinant;recombinant;recombinant; tags: ;none (6His on partner CGI121);6His (C-term);6His (C-term); chain copies: 2;2;2;2; label: 5' 6-FAM; tRNA cloverleaf
T3 sequence 1: T1 sequence 1 with G43E, F44R, L45K, P46R, R47D, E48K
T3 sequence 2: T1 sequence 2 with R163S
T3 sequence 3: T1 sequence 3
T3 sequence 4: T1 sequence 4

[4] = biological target: T4, KAE1;BUD32;CGI121;PCC1 R73D (Arabidopsis thaliana;Arabidopsis …, UniProt O49653;Q94K14;Q6NMZ4;Q8GWD7 1-353;1-226;1-172;1-96, |||R73D); experiment: MST; Fig S4 legend gives ~372; MST: 20 mM PBS pH 7.5, 300 mM NaCl, 0.05% Tween 20, 25 C, 50 nM RNA; EMSA: 20 mM Tris-HCl pH 7.5, 300 mM NaCl, 5 mM b-mercaptoethanol, 20% glycerol, agarose gel in Tris-glycine pH 8.0 (8.5 for FAM-RNA), 4 C; details: protein: recombinant;recombinant;recombinant;recombinant; tags: none (6His on partner PCC1);none (6His on partner CGI121);6His (C-term);6His (C-term); chain copies: 2;2;2;2; label: 5' 6-FAM; tRNA cloverleaf
T4 sequence 1: T1 sequence 1
T4 sequence 2: T1 sequence 2 with R163S
T4 sequence 3: T1 sequence 3
T4 sequence 4: T1 sequence 4 with R73D

B1: 5'-6FAM-tRNAArgCCU (structured_RNA)
RNA: GCGCCUGUAGCUCAGUGGAUAGAGCGUCUGUUUCCUAAGCAGAAGGUCGUAGGUUCGACCCCUACCUGGCGCGCCA
Kd [1]: 330 ± 11.1 µM | Kd [2]: 29.8 ± 10.7 µM | binding result [3]: binds | Kd [4]: 353 ± 40 µM

— publication PMC11077089, “Molecular basis of A. thaliana KEOPS complex in biosynthesizing tRNA t6A”
